Experiment: soluble on expression in E. coli; label from the status in PepcDB or PDB records

Which “soluble on expression in E. coli” value does the source give for “MAHHHHHHMADRGDARVVHVFVDDLSAVLAEDVHEWLRIIGDIDELKMRYDASRQRSFYWVRFHQSSAARLAVDHLDGERLKNHAIEIHSNVFKKQTAAVATLEGAAGGVQEEKTKLEMNPNLPKNHLMPRDLQMDELLVRAIPEMLETSEQAAEGGELLQRLLELQESYCRAQESLERTTEGIRETDGELTALLRGETTAATDVSGPSSEGFVQGNTPLASARIRNAVPVPLSTCDPAGLLSKLTRHVGPVADYAFSFASNGGSFATVVELFHPDDADFALALLTGRRMVSKSTEKHADAEDALAALVGFGWEAEASVAPLTPPSVPQASFAAHNRVATILRSCRSVA” here?
The value was “not soluble”.

For “MGSDKIHHHHHHQPTGTMTTDSKLTSKESALALTNSAYLKNTVFNKMTPGWGCNTILLLEYMTGKATSENSQSNYKDFQDLLVSDRSLYIEDWWQDCYAGIANCNLALQKLGEFENLDASLVNGYMAEVKFMRALYYFYLVRIFGDVPKITTVQSELGELQVSRAPVKEIYDEIIIPDLLEAEQSDLAFSDHTGRVSMGAVKALLADVYLTYAGYPLQGGKSYYAESAKRSLEVIKSNEYTLFTDYESLRLPSQNNKGEFIYQVQFSLNKRHNESVRIFLPSRSGISAYDLEYGSLIPTKEFVESFEKGDKRTEEKQYFFTNYKGHPSKFSPGAAELEFMDLNGYYIYKFFDQVAVDNTAKSDLNWSVYRYTDVLLMYAEAQVNADGTPNQQSIDIVNQIRGRAGLAPFKQTNASAFLEEVWDQRYFDLCYENKMWFDMLRTRKIRDDKSGEYVDFIGYKTNWGKVYTETQLLFPIPLSERQANPNLTQNQGY”, which “soluble on expression in E. coli” value is on record?
Its value is “not soluble”.

For “MFNDLESKLQSLLERNITSVLELENWLFDELRVNAEIEEKITSSLIATYRDTDNRNMRDLHMYNQNTIQPLLKRYNAKFDQKFIECPFSNLLDERKYEFMKKARFVKSKMFNEKNIALSIKGQECITKYREIMSNITINWEGEQKTYAHVKAKLDNPNRAIRKKAWYALCEARSVVKPEVDRIMNELIQLRNEIALNAGFNNYSEYAFKQKNRDYSIDDCYKLHESIEKYVVPIWKQLGSISKKNLDVKTYRPWDLSPCNLPKAPFQNAINLLDGVEEMFRTTDLYFYEKFIHIRKAGCIDVEERENKAAGAICFTLPHSKEVFVYSNFSPSFYAINALIHEVGHAFHFYKQFKNDSSMQERYLREEVAELYSLSLELLVMDKLNVFYKQEDEYKEVQRVQIYRALSLLMSSIAGDVFQHWIYENPNHTPEERDKKYAEICKRYQYSTVDIAGLEDEIGASWIESFHYVQFPFYKIEYAIAQIGAMQLFQIYWEDPEKAIDFFKEGASADWNLSIQEIYEKTGVTFDFSEERIESTASVILDLINELK”, which “soluble on expression in E. coli” value is on record?
The value was “not soluble”.

With “SRGMTPGSRLIDYQLIDSTEELAAILGCGHPSSIHKITRVRLANDIPMAIESSHIPFELAGELNESHFQSSIYDHIERYNSIPISRAKQELEPSAATTEEANILGIQKGAPVLLIKRTTYLQNGTAFEHAKSVYRGDRYTFVHYMDRLS” as the sequence, how does the “soluble on expression in E. coli” value read?
The value was “not soluble”.

Which “soluble on expression in E. coli” value does the source give for “MKQLTVEDAKQIELEILDYIDTLCKKHNINYIINYGTLIGAVRHEGFIPWDDDIDLSMPREDYQRFINIFQKEKSKYKLLSLETDKNYFNNFIKITDSTTKIIDTRNTKTYESGIFIDIFPIDRFDDPKVIDTCYKLESFKLLSFSKHKNIVYKDSLLKDWIRTAFWLLLRPVSPRYFANKIEKEIQKYSRENGQYMAFIPSKFKEKEVFPSGTFDKTIDLPFENLSLPAPEKFDTILTQFYGLEHHHHHH” here?
The value was “not soluble”.

With “MGSDKIHHHHHHEAKGHQTVKIDTVVSADKQTFLQFPGKVKAAQDISLAFRVSGTISKIHVKDGARVQEGQLLAELDPTDYQVQLDATEAEYQQIKAEAERVMALYKDNGTTPNANDKAVYGLKQITAKYKHHKDQLAYTRLYAPFNGYVQKRLFEAHETIGAGMPVIAMISGGTPEVEINLPAAEYIRREQFDNYHCTFDIYPGETYPLKLISVTPKANANQLYTMRLQVVPGTRAIPSPGMNTMVTILCRTEQENTLSVPTGAILQKEGKAYVFVFHPSSNTVHRQEVSILRLLNNGHSLITSRQLQPGEQIVSSGVHHIEDGEIVKPLSPVTNTNIGGLL” as the sequence, how does the “soluble on expression in E. coli” value read?
The value was “not soluble”.

With “MGSDKIHHHHHHMFYYNQYVRAQSLDEAYELYQKKPNFVLGGMLWLKMKNKTLGTAIDLCDLGLDQIDEDENEFRIGAYATLRQIETHEALNAYTHGAIAESVRHIVGVQFRNVATVGGSIWGRFGFSDVMTIFRALGAKVQLHKAGIMDLDEFAALPRTTRDVLVSVIVPKNAKGVVYLSQRNQSTDFPVLTCAVANRSGRYVAVIGASPYMAEPVWDEDGILDGIADAKTDGNAALTDNSETNAKIDKFAEYVAEHIRFGSNIRAGAEYREIICRVLTRRAVTQSLDICDDIKHEH” as the sequence, how does the “soluble on expression in E. coli” value read?
The value was “not soluble”.

For “MYLSHFGFRVQPFSLTPNTEMFLGLVPHYEAIQTILAAVQMGEGVIKVTGEVGTGKTMVCRKLIEQIESQVELVYLPNPVLNGEQLQFAVARELGIDNDDPLRIVSLIQEHLIRVHSTGKKTVLIVDEAQALSPEALETLRLFGNLETEQDKLIQLVLFGQPELDERLSMHELRQFRQRITFSCGLRPLSVDEGVAYINNRLDKAGNGAHIFSIEQKKAIWRSAMGIPRLINQISHKALLAAFNDRCTLLKNHHVYAAMHDTFDARKPKFKTPVFWGWSQPLEHHHHHH”, which “soluble on expression in E. coli” value is on record?
The value was “not soluble”.

With “MSLTYYFSGTIDRVIFENTSNFFKIILLEIDDTDSDFDDFEIIVTGTIADVIEGENYTFWGELTQHPKYGQQLKVERYQRAKPSSAGLIKYFSSQHFKGIGKKTAEKIIHLYGDDPIDNILEDPDKLESISGLSKANRENLVSKLRLNYGAEQILAKLAEYGLNNKTAVQIFERYKEESLTVITENPYQLVEDIQGIGFKMADKLAEQVGINSDAPQRFRAALVHTLLETSIDKGDTYIEAKELLEKSLFILEEVRQVELDPSQIAQELTQLISEDKVQNIGTKIFDNTLFYAESGIHKHLTRILDRPLEKEISSQDIQTEIKHIQAEFNINYDKAQKNAIQKAIQSKVFLLTGGPGTGKTTVINGIIKAYANLHQIDLQKSDRPIILAAPTGRAARRMNELTGLPSATIHRHLGLNGDSEYQALDDFLDCDLIIIDEFSMVDTWLANQLFSAIASNTQVIIVGDSDQLPSVGPGQILADLLKINRLPQVSLTKIFRQSEDSTIVTLANQIRQGRLPTDFTAKKADRSYFEAQSTHIPQMIQKIVSSALKSGIDAQEIQILAPMYRGQAGITHLNKLMQDLLNPLNNQLEFQFNDLHFRKGDKVLHLINDAQINVFNGDIGYITDLIPAKYTESKQDEMILDFDGTEINYPRNEWLKITLAYAMSIHKSQGSEFKVVILPVTRQSGRLLQRNLIYTAITRSKSKLVMLGEIAAFDNAIKNEGTKRKTYLIERFKKDECSGHHNTEKNKQGVKESAAILKEDFILTERNILTIDPMIGLSQADIDLFFKKEGHHHHHH” as the sequence, how does the “soluble on expression in E. coli” value read?
The value was “soluble”.

For “MGHHHHHHSHPPTAPDRATAVATASRLGPYVLLEPEEGGRAYQALHCPTGTEYTCKVYPVQEALAVLEPYARLPPHKHVARPTEVLAGTQLLYAFFTRTHGDMHSLVRSRHRIPEPEAAVLFRQMATALAHCHQHGLVLRDLKLCRFVFADRERKKLVLENLEDSCVLTGPDDSLWDKHACPAYVGPEILSSRASYSGKAADVWSLGVALFTMLAGHYPFQDSEPVLLFGKIRRGAYALPAGLSAPARCLVRCLLRREPAERLTATGILLHPWLRQDPMPLAPTRSHLWEAAQVVPDGLGLDEARE”, which “soluble on expression in E. coli” value is on record?
The value was “not soluble”.

Which “soluble on expression in E. coli” value does the source give for “AQYKDDPILKAATIVSAPLDLAACANRIEQGFSKVYRRYLLSSLKRNALQKHHLLHGELALSYNSIKRVTRLYEFDDLITAPLHGFKDAQDYYDQCSGLSKLLQITLPTLIIHAKDDPFMTEEVIPKFVLPDNIDYRLFEHGGHVGFLTGT” here?
The value was “not soluble”.

With “SSAEVKVTGQNQEQFLLLAKSAKGAALATLIHQVLEAPGVYVFGELLDMPNVRELAESDFASTFRLLTVFAYGTYADYLAEARNLPPLTEAQKNKLRHLSVVTLAAKVKCIPYAVLLEALALRNVRQLEDLVIEAVYADVLRGSLDQRNQRLEVDYSIGRDIQRQDLSAIARTLQEWCVGCEVVLSGIEEQVSRANQHKEQQLGLKQQIESEVANLKKTIKVTTAAAAAATSQDPEQHLTELREPAPGTNQRQPSKKASKGKGLRGSAKIWSKSN” as the sequence, how does the “soluble on expression in E. coli” value read?
The value was “soluble”.

For “MATGGLAIIQSMKHKLPPSERKLADYILAHPHKAIESTVNEISALANSSDAAVIRLCKSLGLKGFQDLKMRVAGDLAKPTFQGYRDIVPHEPLPSISEKTAGNAIQAI”, which “soluble on expression in E. coli” value is on record?
Its value is “soluble”.

With “MGSSHHHHHHSSGLVPRGSHMNTNSNTMVMNDANQAQITATFTKKILAHLDDPDSNKLAQFVQLFNPNNCRIIFNATPFAQATVFLQMWQNQVVQTQHALTGVDYHAIPGSGTLICNVNCKVRFDESGRDKMGQDATVPIQPNNTGNRNRPNDMNKPRPLWGPYFGISLQLIIDDRIFRNDFNGVISGFNYNMVYKPEDSLLKI” as the sequence, how does the “soluble on expression in E. coli” value read?
The value was “soluble”.

For “MVAVKGLSEREVVADTVIWPIQFTVADNQLSSLFATVDQQTQLITQFLVEKGVDRAAISLSAPAVIDKKAQQYGEDRAEFRYLATQTLTVYSKQVDQVRKIISEIGQLGKQGVVFNQDPYNNRVEFSFTGLNAIKPDMIEEATKQAREVAQKFAKDSQSTLGKIKTASQGQFSITDRDNNTPYIKNVRVVTTVEYYLSDLEHHHHHH”, which “soluble on expression in E. coli” value is on record?
The value was “not soluble”.

For “SYPYILISGHKHPRLSMHRGAKKRKGEYFGPYPDSGAVRETLHLLQKIFPVRQCEDTVYSNRTRPCLMYQIGRCAGPCVSSIISDEEYAELVGFVRLFLQGKDQQVLKQLIEKMEVASQQLRFEDAAKFRDQIQAIRRVQEQQYVSEDSMDDMDVLGFAQENGIACIHILMIRQGKVLGSRSHFPKIPQNTSQQEVFDSFLTQYYLSHNEARTIPSRIILNQELADDLEPIQKALSEVAGRKVHFHTSPTGARGRYLKLSNTNALTAITTKINHKMTINQRFKALRETLGMESIMRMECFDISHTMGESTIASCVVFNNEGPVKQEYRRYNITGITGGDDYAAMGQALERRYSKQLDVEKIPDIIFIDGGKGQLNRAHEIIAQYWGDWPKRPIMIGIAKGVTRKPGLETLITVDGEEFNLPSDAPALHLIQHIRDESHNHAIAGHRAKRGKTRR”, which “soluble on expression in E. coli” value is on record?
Its value is “not soluble”.

Which “soluble on expression in E. coli” value does the source give for “MGSDKIHHHHHHMNAPLLLRNVGRGESTESGAVPPAVLPPVQPSPTTLQAPDHAARRRIAVFRALQLGDMLCAVPALRALREGEPDAHITLIGLPWVRDFASRFGSLIDDVMVFPGAPGFPERPYDAAALAAFHAEARARRFDLAIQLHGSGTLSNDVVRQLGARTIAGFCPTSAEAALANEHERLLPWPGGNEIERLLGLMRALGYPVVDAHLAFPLRPQDHAGWQRLAELHGLVGGEYICVHPGARMLSRRWPVERFADVALRLRKRWRIVVTGAPDEIMLTHRLCELIGGDVVNLTAATPLGELAALIAHARLLLCNDTGPSHIAAALDTPSVVVSCGGDSDRWAPLDATLHHVLASYPPCRPCNWQKCPIRHECATAITVDAVEAEALSLASRGHDHA” here?
The value was “not soluble”.

For “QVQLVESGGGSVQAGGSLRLSCTASGYTIGPYCMGWFRQAPGGEREAVAAINMGGGITYYADSVKGRFTISRDNAKNTVTLQMNSLKPEDTAMYYCAADSTIYASYYECGHGLSTGGYGYDSWGQGTQVTVSSRGRHHHHHH”, which “soluble on expression in E. coli” value is on record?
The value was “soluble”.

For “MRTLGLDLGTKTLGVAVSDELGLTAQGLETIAIDTERGDYGLKRLRAIIDEYGVDTIVVGWPKNMNGTLGPRAEASERFAAKLREEFSLPVVLRDERLSTMAAERMLIAADVSRKKRRKVIDKMAAAVILQSYLDSKR”, which “soluble on expression in E. coli” value is on record?
Its value is “not soluble”.

For “MQNHVISLASAAERRAHIAATFGSRGIPFQFFDALMPSERLEQAMAELVPGLSAHPYLSGVEKACFMSHAVLWEQALDEGLPYIAVFEDDVLLGEGAEQFLAEDTWLEERFDKDSAFIVRLETMFMHVLTSPSGVADYGGRAFPLLESEHCGTAGYIISRKAMRFFLDRFAVLPPERLHPVDLMMFGNPDDREGMPVCQLNPALCAQELHYAKFHDQNSALGSLIEHDRRLNRKQQWRDSPANTFKHRLIRALTKIGREREKRRKRREQTIGKIIVPFQLEHHHHHH”, which “soluble on expression in E. coli” value is on record?
The value was “soluble”.

Source: the DeepSol protein solubility set
